Like-named read-outs stand apart in the source and are kept apart here. Each block holds one binder with its values, some of them ahead of it.
Key:
[1] = target: T1, folate receptor 1 (FOLR1) (human, UniProt P15328 25-234); assay: flow cytometry, T47D cells
[2] = target: T1, folate receptor 1 (FOLR1); assay: flow cytometry, T47D cells; remark: listed apart in the source

T1 sequence (P15328 25-234): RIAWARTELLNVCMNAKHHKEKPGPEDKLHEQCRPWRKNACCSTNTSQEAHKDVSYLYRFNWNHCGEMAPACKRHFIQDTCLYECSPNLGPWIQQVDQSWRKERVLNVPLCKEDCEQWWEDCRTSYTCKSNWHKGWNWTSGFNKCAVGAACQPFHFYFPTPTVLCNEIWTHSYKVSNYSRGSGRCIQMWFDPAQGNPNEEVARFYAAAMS

EC50 [1]: 0.379 nM
B1: huMOV19-14 conjugate (antibody, V domains shown)
VH: QVQLVQSGAEVVKPGASVKISCKASGYTFTGYFMNWVKQSPGQSLEWIGRIHPYDGDTFYNQKFQGKATLTVDKSSNTAHMELLSLTSEDFAVYYCTRYDGSRAMDYWGQGTTVTVSS
VL: DIVLTQSPLSLAVSLGQPAIISCKASQSVSFAGTSLMHWYHQKPGQQPRLLIYRASNLEAGVPDRFSGSGSKTDFTLTISPVEAEDAATYYCQQSREYPYTFGGGTKLEIKR

EC50 [2]: 0.371 nM
B2: huMOV19-90 conjugate (antibody, V domains shown)
VH: B1 VH
VL: B1 VL

Source: US20160082114A1 (published 2016)
